Assays:
[1] = biological target: N-terminally thioredoxin (Trx)-tagged Ct domain of CaeA2 (Actinoalloteichus cyanogriseus) (UniProt M1F4W8); test: ITC
[2] = biological target: T1, N-terminally thioredoxin (Trx)-tagged Ct domain of CaeA2 (Actinoalloteichus cyanogriseus, UniProt M1F4W8 2080-2484); test: ITC
T1 sequence (looked up): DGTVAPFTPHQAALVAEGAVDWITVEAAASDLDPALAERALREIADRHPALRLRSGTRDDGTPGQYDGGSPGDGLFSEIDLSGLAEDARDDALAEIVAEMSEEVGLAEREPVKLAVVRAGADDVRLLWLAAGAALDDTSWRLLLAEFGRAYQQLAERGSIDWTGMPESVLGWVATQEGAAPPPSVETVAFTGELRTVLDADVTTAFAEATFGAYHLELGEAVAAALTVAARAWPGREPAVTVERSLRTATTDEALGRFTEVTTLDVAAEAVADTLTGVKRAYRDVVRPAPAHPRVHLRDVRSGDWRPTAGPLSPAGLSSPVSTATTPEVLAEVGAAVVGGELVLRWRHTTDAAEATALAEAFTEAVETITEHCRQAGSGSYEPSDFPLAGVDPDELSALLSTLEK

## ColB1 (enzyme)
[1]
  Kd: 1180 nM

B1: MBP-fused CaeB1 variant (enzyme)
chain: MTTGNGAAPPPLTRLSPEDEAWRAHVRAFAEEHIAPLSDRMDRDATLDPGLREKLFSAGLMAVEAPARYGGRGGSLFQVVLTIEEVARVDPGVAVGVDVHNALVVATLLRQGTGDQKRRRLPLLATRQVGAFALSEENAGSDAFAGTTTAVPTSDGGYRINGRKRWTSNAGQADVFLVFARTEGHGSSAFLVDRTAEGLSIDPRTEQMGVRAAATADVVLTDVRVRRQDCVGGPGGGEGVAIGALDIGRIGIAAQMVGLAQGALDEAVAYSRTREQFGQPIGSYQGVRFTLADIATEVAAARALLYDVTRTVAAGTDIAERLRLTAMAKYFASQVAERAASRALEVLGGNGFTREYPLERFYRDVKAGKIYEGTSNMLLRSIAGSL
[2]
  Kd: 530 ± 120 nM

Reference: paper doi:10.1101/2020.12.07.415471 (bioRxiv, 2020)
